In publication PMC4319893, “Targeting Protein-Protein Interactions with Trimeric Ligands: High Affinity Inhibitors of the MAGUK Protein Family” (PLoS ONE, 2015):

What was measured:
Assay in all cases: fluorescence polarisation; monomeric FP assay with monomeric fluorescent peptide probes (PSD-95 PDZ1-2, PDZ1-2-3 and single PDZ domains); 50 mM TRIS, 100 mM NaCl, 1 mM EDTA, 1 mM DTT
PSD-95 PDZ2 (human) = target: PSD-95 PDZ2 (human)
PSD-95 PDZ1-2 (human) = target: PSD-95 PDZ1-2 (human)
PSD-95 PDZ1 (human) = target: PSD-95 PDZ1 (human)
PSD-95 PDZ1-2-3 (human) = target: PSD-95 PDZ1-2-3 (human)

affinity (PSD-95 PDZ2 (human)): 25 µM
fold lower affinity than 17 (PSD-95 PDZ1-2 (human)): > 1000 fold
affinity (PSD-95 PDZ1 (human)): 97 µM
fold lower affinity than 17 (PSD-95 PDZ1-2-3 (human)): > 1000 fold
Substance: CRIPT hexapeptide YKQTSV (1)
